In patent US20220040319A1 (Regeneron, published 2022):
Read-outs that look alike come from different tables or passages of the source.

Tests used:
[1] = target: T1, hMet.mmh (human MET extracellular domain with C-terminal myc-myc-hexahistidine tag) (human, UniProt P08581 309-914; P08581 27-307); experiment: SPR 37C, antibody captured
T1 construct: soluble monomeric MET; also called monomeric human MET
Procedure: (§1) Kinetic association (kₐ) and dissociation (kd) rate constants were determined as described in Example 3.

[2] = target: T1, hMet.mmh (human MET extracellular …); experiment: SPR 37C, antibody captured; remark: listed apart in the source
Procedure: (§2) The anti-Met antibodies tested in this example were bivalent monospecific binders of MET.
(§3) Kinetic association (kₐ) and dissociation (kd) rate constants were determined by fitting the real-time sensorgrams to a 1:1 binding model using Scrubber 2.0c curve fitting software. Binding dissociation equilibrium constant (KD) and dissociative half-life (t1/2) were calculated from the kinetic rate constants as: […]

[3] = target: T2, hMET.mFc (dimeric human MET) (human, UniProt P08581 27-307); experiment: SPR 37C, antibody captured
T2 construct: soluble dimeric MET protein
T2 sequence (P08581 other isoform, or with tags, fused parts or gaps limits assumed, chain 1 of 2): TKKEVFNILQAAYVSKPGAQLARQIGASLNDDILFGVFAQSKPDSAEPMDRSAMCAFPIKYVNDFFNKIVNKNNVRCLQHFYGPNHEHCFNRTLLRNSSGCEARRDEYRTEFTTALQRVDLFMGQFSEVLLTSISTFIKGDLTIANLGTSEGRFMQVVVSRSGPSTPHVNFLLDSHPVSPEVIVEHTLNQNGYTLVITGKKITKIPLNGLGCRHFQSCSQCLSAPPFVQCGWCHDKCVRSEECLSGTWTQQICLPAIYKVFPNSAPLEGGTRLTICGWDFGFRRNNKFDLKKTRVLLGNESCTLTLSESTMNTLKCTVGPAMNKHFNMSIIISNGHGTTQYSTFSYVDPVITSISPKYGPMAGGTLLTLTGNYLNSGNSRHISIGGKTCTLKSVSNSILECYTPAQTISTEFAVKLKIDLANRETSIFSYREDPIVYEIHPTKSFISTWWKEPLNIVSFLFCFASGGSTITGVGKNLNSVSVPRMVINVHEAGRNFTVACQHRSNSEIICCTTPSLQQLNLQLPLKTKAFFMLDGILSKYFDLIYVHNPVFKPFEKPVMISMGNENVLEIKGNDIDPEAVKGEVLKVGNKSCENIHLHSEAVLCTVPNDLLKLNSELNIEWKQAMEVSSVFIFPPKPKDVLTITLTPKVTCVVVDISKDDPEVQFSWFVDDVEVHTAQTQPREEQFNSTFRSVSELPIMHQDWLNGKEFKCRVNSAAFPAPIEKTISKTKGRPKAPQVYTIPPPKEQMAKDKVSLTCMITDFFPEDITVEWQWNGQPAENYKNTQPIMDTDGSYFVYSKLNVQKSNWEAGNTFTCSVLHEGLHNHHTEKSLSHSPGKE
T2 sequence (P08581 27-307 limits assumed, chain 2 of 2): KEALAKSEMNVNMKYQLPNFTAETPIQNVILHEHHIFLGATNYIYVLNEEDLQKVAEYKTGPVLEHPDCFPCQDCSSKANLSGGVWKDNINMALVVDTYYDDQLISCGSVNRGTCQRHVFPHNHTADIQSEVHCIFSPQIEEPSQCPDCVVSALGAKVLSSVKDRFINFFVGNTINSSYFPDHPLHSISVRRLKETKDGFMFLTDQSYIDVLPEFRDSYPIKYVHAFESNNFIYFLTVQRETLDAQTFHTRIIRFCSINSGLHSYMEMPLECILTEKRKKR
Procedure: as §2, §3

human MET on cells [4] = target: T3, human MET on cells (human, UniProt P08581 25-1390); experiment: cell-based or functional assay
T3 sequence (P08581 25-1390 limits assumed, form in doubt): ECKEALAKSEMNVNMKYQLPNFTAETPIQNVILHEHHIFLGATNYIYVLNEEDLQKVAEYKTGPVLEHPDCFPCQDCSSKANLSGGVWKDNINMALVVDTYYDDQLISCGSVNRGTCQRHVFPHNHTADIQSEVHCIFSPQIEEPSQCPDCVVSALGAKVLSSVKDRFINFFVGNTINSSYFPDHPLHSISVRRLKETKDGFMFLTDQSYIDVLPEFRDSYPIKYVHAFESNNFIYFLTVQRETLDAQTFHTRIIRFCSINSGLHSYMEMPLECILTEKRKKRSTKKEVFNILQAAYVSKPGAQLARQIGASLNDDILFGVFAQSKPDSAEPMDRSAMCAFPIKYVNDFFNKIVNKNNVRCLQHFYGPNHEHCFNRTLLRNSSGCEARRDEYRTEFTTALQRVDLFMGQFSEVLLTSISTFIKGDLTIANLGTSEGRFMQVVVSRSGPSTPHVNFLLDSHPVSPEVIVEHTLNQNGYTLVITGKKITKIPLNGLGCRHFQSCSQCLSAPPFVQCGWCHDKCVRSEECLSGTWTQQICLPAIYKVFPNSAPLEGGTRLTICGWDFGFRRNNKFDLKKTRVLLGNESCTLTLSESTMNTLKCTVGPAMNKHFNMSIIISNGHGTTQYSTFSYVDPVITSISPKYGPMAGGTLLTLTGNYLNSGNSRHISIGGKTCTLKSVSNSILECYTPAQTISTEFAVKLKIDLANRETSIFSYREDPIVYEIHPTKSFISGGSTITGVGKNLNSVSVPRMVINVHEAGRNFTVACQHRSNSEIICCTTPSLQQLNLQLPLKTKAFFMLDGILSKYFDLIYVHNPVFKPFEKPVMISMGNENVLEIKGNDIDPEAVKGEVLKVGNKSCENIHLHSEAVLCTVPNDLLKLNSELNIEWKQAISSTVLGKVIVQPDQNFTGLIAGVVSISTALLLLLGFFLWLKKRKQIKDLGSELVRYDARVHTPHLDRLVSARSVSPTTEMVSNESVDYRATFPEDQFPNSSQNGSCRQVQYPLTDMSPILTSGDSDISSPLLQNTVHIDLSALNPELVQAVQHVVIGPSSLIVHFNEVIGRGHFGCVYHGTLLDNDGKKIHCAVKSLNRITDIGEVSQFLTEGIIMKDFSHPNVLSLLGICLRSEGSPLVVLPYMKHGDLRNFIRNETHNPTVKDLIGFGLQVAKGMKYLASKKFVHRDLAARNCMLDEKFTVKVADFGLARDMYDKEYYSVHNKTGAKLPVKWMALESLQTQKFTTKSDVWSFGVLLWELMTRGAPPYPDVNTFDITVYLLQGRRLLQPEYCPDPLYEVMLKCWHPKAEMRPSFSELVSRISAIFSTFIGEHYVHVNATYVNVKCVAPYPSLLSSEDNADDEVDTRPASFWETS

human MET on cells [5] = target: T3, human MET on cells; experiment: cell-based or functional assay; remark: listed apart in the source
[6] = target: T1, hMet.mmh (human MET extracellular …); experiment: SPR 37C, antibody captured; remark: listed apart in the source
Procedure: as §1

[7] = target: MET (c-Met, hepatocyte growth factor receptor) on cells (human, UniProt P08581 25-1390); experiment: cell-based or functional assay
Sequence of MET (c-Met, hepatocyte growth factor receptor) on cells (P08581 25-1390 limits assumed, form in doubt): as above
For % Inhibition, HEK293/SRE-Luc Blocking Activity (HGF, 1 h mAb pre-bind) in this document: test concentration or dose not given here.

T1 sequence (P08581 other isoform, or with tags, fused parts or gaps limits assumed, chain 1 of 2): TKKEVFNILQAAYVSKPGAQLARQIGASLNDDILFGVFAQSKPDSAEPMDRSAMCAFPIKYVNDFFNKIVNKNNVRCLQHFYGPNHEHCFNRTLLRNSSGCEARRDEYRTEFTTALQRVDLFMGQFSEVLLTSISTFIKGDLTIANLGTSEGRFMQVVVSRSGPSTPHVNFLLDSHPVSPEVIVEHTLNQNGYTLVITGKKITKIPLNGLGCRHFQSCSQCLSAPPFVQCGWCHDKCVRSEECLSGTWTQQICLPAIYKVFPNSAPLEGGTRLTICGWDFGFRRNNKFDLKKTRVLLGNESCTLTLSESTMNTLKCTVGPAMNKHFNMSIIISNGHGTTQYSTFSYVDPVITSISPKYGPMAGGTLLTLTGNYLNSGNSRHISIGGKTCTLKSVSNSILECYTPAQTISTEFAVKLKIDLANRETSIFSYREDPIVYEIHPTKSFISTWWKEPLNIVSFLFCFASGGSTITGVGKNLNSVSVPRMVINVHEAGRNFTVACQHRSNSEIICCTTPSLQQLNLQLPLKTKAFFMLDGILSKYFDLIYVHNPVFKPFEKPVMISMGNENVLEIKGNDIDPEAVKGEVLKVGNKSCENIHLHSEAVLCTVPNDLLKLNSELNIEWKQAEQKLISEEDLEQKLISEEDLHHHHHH
T1 sequence (P08581 27-307 limits assumed, chain 2 of 2): as the sequence (P08581 27-307 limits assumed, chain 2 of 2) above

| Binder | Relative MET Level, SNU5 cells, 18 hrs (human MET on cells [4]) | % Inhibition, HEK293/SRE-Luc Blocking Activity (HGF, 1 h mAb pre-bind) (human MET on cells [5]) | EC50, Ligand (HGF)-Independent HEK293/SRE-Luc Activation (human MET on cells [5]) | Fold Response, Ligand (HGF)-Independent HEK293/SRE-Luc Activation (human MET on cells [5]) | IC50, HEK293/SRE-Luc Blocking Activity (HGF, 1 h mAb pre-bind) (human MET on cells [5]) | T½ [6] | koff [6] | other results |
| --- | --- | --- | --- | --- | --- | --- | --- | --- |
| H4H13306P2 (antibody, human IgG4, V domains shown, human IgG4 Fc (H4H), bivalent monospecific; also called parental antibody 1; M1) VH: EVQLVESGGGLVQPGTSLRLSCAASGFTFDDYAMHWVRQAPGKGLEWVSGITWNSYNIDYADSVKGRFTISRDNAKNSLYLQMNSLRAEDTALYYCAKDDDYSNYVYFDYWGQGTLVTVSS VL: not shown |  |  |  |  |  |  |  | T½ [1]: 0.7 min; Kd [2]: 109 nM; T½ [2]: 0.7 min; Kd [3]: 2.15 nM; T½ [3]: 4.4 min |
| H4H14638D (bispecific antibody, human IgG4, V domains shown) VH 1: QVQLVESGGGVVQPGRSLRLSCAASGFTFSNFGMHWVRQAPGKGLEWVAGIWFDGSNKNYIDSVKGRFTISRDNSKNTLYLQMNSLRAEDTAVYYCAREGYDSGTDYIPYDIFDIWGQGTMVTVSS VH 2: EVQLVESGGGLVQPGGSLRLSCAASGFIVTTNYMTWLRQAPGKGLEWVSLIYSSGHTYYADSVKGRFTISRHNSKNTLYLQMDSLRAEDTAVYYCASAFAADVFDIWGQGTMVTVSS VL: not shown | 0.35 relative to control (hFc) | 79% | 5.9 nM | 2.6 fold | 1.1 nM |  |  |  |
| H4H14634D (bispecific antibody, human IgG4, V domains shown) VH 1: QVQLQESGPGLVKPSETLSLTCTVSGDSISSYYWTWIRQPPGKGLEWIGYIFYRGGTTYNPSLKSRVTISVDTSKNQFSLKLRSVTAADTAVYYCARGDDLLVVTSVYWYIDLWGRGTLVTVSS VH 2: EVQLVESGGGLVQPGGSLRLSCAASGFIVTTNYMTWLRQAPGKGLEWVSLIYSSGHTYYADSVKGRFTISRHNSKNTLYLQMDSLRAEDTAVYYCASAFAADVFDIWGQGTMVTVSS VL: not shown | 0.45 relative to control (hFc) | 85% | 0.09 nM | 3.4 fold | 0.0097 nM |  |  |  |
| H4H14636D (bispecific antibody, human IgG4, V domains shown) VH 1: EVQLVESGGGLVQPGGSLRLSCAASGFIFSNYEMNWVRQAPGKGLEWISYITSSGNMKYYADSVKGRFTISRDNDKNSLYLQMSSLRVEDTAVYYCVRGGRFLEWLTYYVMVVWGQGTTVTVSS VH 2: EVQLVESGGGLVQPGGSLRLSCAASGFIVTTNYMTWLRQAPGKGLEWVSLIYSSGHTYYADSVKGRFTISRHNSKNTLYLQMDSLRAEDTAVYYCASAFAADVFDIWGQGTMVTVSS VL: not shown | 0.5 relative to control (hFc) | 74% | 0.28 nM | 2.8 fold |  |  |  |  |
| H4H14639D (bispecific antibody, human IgG4, V domains shown, MET x MET bispecific, expressed as human IgG4; also called bispecific antibody No. 122; MET×MET bispecific antibody) VH 1: EVQLVESGGGLVQPGTSLRLSCAASGFTFDDYAMHWVRQAPGKGLEWVSGITWNSYNIDYADSVKGRFTISRDNAKNSLYLQMNSLRAEDTALYYCAKDDDYSNYVYFDYWGQGTLVTVSS VH 2: EVQLVESGGGLVQPGGSLRLSCAASGFIVTTNYMTWLRQAPGKGLEWVSLIYSSGHTYYADSVKGRFTISRHNSKNTLYLQMDSLRAEDTAVYYCASAFAADVFDIWGQGTMVTVSS VL: not shown |  |  |  |  |  | 70.8 min | 0.000163 s⁻¹ | T½ [1]: 70.8 min; koff [1]: 0.000163 s⁻¹; IC50 (read off the curve); blocking of HGF-dependent SRE-driven luciferase signal in HEK293T cells [7]: ~0.4 nM |
| H4H14637D (bispecific antibody, human IgG4, V domains shown) VH 1: QVQLVESGGGVVQPGTSLRLSCVASGFTFRNFGMHWVRQAPGKGLEWVANIWFDGSNENYVESIQGRFTISRDNSKNTLNLQMNSLRAEDSAVYYCVREGILGTTNPYDAFDVWGQGTMVTVSS VH 2: EVQLVESGGGLVQPGGSLRLSCAASGFIVTTNYMTWLRQAPGKGLEWVSLIYSSGHTYYADSVKGRFTISRHNSKNTLYLQMDSLRAEDTAVYYCASAFAADVFDIWGQGTMVTVSS VL: not shown | 0.49 relative to control (hFc) | 73% | 4.1 nM | 2.1 fold |  |  |  |  |

Second part, led by results:

| Relative MET Level, SNU5 cells, 18 hrs (human MET on cells [4]) | % Inhibition, HEK293/SRE-Luc Blocking Activity (HGF, 1 h mAb pre-bind) (human MET on cells [5]) | EC50, Ligand (HGF)-Independent HEK293/SRE-Luc Activation (human MET on cells [5]) | Fold Response, Ligand (HGF)-Independent HEK293/SRE-Luc Activation (human MET on cells [5]) | IC50, HEK293/SRE-Luc Blocking Activity (HGF, 1 h mAb pre-bind) (human MET on cells [5]) | T½ [6] | koff [6] | Binder | other results |
| --- | --- | --- | --- | --- | --- | --- | --- | --- |
|  |  |  |  |  | 112 min | 0.000103 s⁻¹ | H4H16446D (bispecific antibody, human IgG4, V domains shown, MET x MET bispecific, expressed as human IgG4; also called bispecific antibody No. 58) VH 1: QVQLVESGGGVVQPGRSLRLSCAVSGFTFSSYGMHWVRQAPGKGLEWVANIWYDGTNDYYPYSVKGRFTISRDNSQNTLYLQMNSLRAEDTAVYYCAREDFINYRSFDYWGQGTLVTVSS VH 2: EVQLVESGGGLVQPGGSLRLSCAASGFIVTTNYMTWLRQAPGKGLEWVSLIYSSGHTYYADSVKGRFTISRHNSKNTLYLQMDSLRAEDTAVYYCASAFAADVFDIWGQGTMVTVSS VL: not shown |  |
|  |  |  |  |  | 39.3 min | 0.000294 s⁻¹ | H4H16449D (bispecific antibody, human IgG4, V domains shown, MET x MET bispecific, expressed as human IgG4) VH 1: QVQLVESGGGVVQPGRSLRLSCAASGFTFSSFAMHWVRQAPGKGLEWVAVIWYDGSNDYYAASVKGRFTISRDNSKNTLYLEMNRLRAEDTAVYHCARDNWNYWGGMDVWGQGTTVTVSS VH 2: EVQLVESGGGLVQPGGSLRLSCAASGFIVTTNYMTWLRQAPGKGLEWVSLIYSSGHTYYADSVKGRFTISRHNSKNTLYLQMDSLRAEDTAVYYCASAFAADVFDIWGQGTMVTVSS VL: not shown |  |
|  |  |  |  |  | 13.6 min |  | H4H16447D (bispecific antibody, human IgG4, V domains shown, MET x MET bispecific, expressed as human IgG4; also called bispecific antibody No. 154) VH 1: QVQLVESGGGVVQPGRSLRLSCAASGFTFSSYAMHWVRQAPGRGLEWVAVIWHDGDVEYYVDSVKDRFTISRDNSKSTLYLQMNSLRAEDTALYYCAREAWDLLRPFDYWGQGTLVTVSS VH 2: EVQLVESGGGLVQPGGSLRLSCAASGFIVTTNYMTWLRQAPGKGLEWVSLIYSSGHTYYADSVKGRFTISRHNSKNTLYLQMDSLRAEDTAVYYCASAFAADVFDIWGQGTMVTVSS VL: not shown |  |
|  |  |  |  |  | 29.4 min | 0.000393 s⁻¹ | H4H16445D (bispecific antibody, human IgG4, V domains shown, MET x MET bispecific, expressed as human IgG4; also called bispecific antibody No. 26) VH 1: QVQLVESGGGVVQPGGSLRLSCAASGFTFSGYGMHWVRQAPGKGLEWMAVIWYDGSNDYYPDSVKGRFTISRDNSKNTLYLQMNSLRVEDTAVYYCARDAWDLLRSFDYWGQGTLVTVSS VH 2: EVQLVESGGGLVQPGGSLRLSCAASGFIVTTNYMTWLRQAPGKGLEWVSLIYSSGHTYYADSVKGRFTISRHNSKNTLYLQMDSLRAEDTAVYYCASAFAADVFDIWGQGTMVTVSS VL: not shown |  |
| 0.31 relative to control (hFc) | 75% | 84 nM | 4.4 fold | 2.7 nM |  |  | H4H14641D (bispecific antibody, human IgG4, V domains shown) VH 1: QVQLVESGGGVVQPGRSLRLSCSASGFSFSHFGMHWVRQVPGGGLEWVTSIWFDGSNRYYADSLKGRFTISRDNSKNTLYLEMNSLRAEDTAVYYCVREGILGTTNPYDVFDVWGQGTMVTVSS VH 2: EVQLVESGGGLVQPGGSLRLSCAASGFIVTTNYMTWLRQAPGKGLEWVSLIYSSGHTYYADSVKGRFTISRHNSKNTLYLQMDSLRAEDTAVYYCASAFAADVFDIWGQGTMVTVSS VL: not shown |  |
|  |  |  |  |  | 19.5 min | 0.000592 s⁻¹ | H4H16448D (bispecific antibody, human IgG4, V domains shown, MET x MET bispecific, expressed as human IgG4; also called bispecific antibody No. 219) VH 1: QVQLVESGGGVVQPGRSLRLSCVASGFSFSNFGMHWVRQAPGKGLEWVAIIWYDGSNKYYSDSVKGRFTISRDNSKNTLYLQMNSLRVDDTAVYYCARFDRWKFDAFDIWGQGTMVTVSS VH 2: EVQLVESGGGLVQPGGSLRLSCAASGFIVTTNYMTWLRQAPGKGLEWVSLIYSSGHTYYADSVKGRFTISRHNSKNTLYLQMDSLRAEDTAVYYCASAFAADVFDIWGQGTMVTVSS VL: not shown |  |
| 0.18 relative to control (hFc) | 89% | 6.8 nM | 2.5 fold | 0.52 nM |  |  | H4H14640D (bispecific antibody, human IgG4, V domains shown) VH 1: QVQLVQSGTEVKEPGASVKVSCKASGYSFTTYGISWLRQAPGQGLEWMGWISTYNGDTISAQMLQDRVTLTADTSTRTAYMELRSLRSDDTAVYYCARGHEYDSLVYSYWGQGTLVTVSS VH 2: EVQLVESGGGLVQPGGSLRLSCAASGFIVTTNYMTWLRQAPGKGLEWVSLIYSSGHTYYADSVKGRFTISRHNSKNTLYLQMDSLRAEDTAVYYCASAFAADVFDIWGQGTMVTVSS VL: not shown |  |
